Test results reported in article PMC8843702 (2022).

Legend:
Experiment in all cases: SPR
[1] = molecular target: T1, WT SARS-CoV-2 S RBD protein (SARS-CoV-2, UniProt P0DTC2)
SARS-CoV-2 S protein = SARS-CoV-2 S protein (SARS-CoV-2, UniProt P0DTC2)
[2] = molecular target: T1, WT SARS-CoV-2 S RBD protein; remark: listed apart in the source

Binder | koff [1] [s⁻¹] | Kd (SARS-CoV-2 S protein) [pM] | Kd [2] [pM]
P5-22 (antibody, V domains shown) VH: EVQLVESGGGLVKPGGSLRLSCAASGFTFRDYDIIWIRQAPGKGLEWVSYISRSGSTIYYSDSVRGRFTISRDNAKNSVYLQMNSLRAEDTAVYYCARDFGFEGPRMDVWGQGTTVTVSS VL: DIQMTQSPSSLSASVGDRVTITCQASQDIKNYLNWYQQKPGKAPKLLIYDASNLETGVPSRFSGSGSGTDFTFTISSLQPEDIATYYCQQFDNLPITFGQGTRLEIK | < 1e-05 | < 3.34 | < 4.59
polymeric P5-22 (antibody, V domains shown) VH: EVQLVESGGGLVKPGGSLRLSCAASGFTFRDYDIIWIRQAPGKGLEWVSYISRSGSTIYYSDSVRGRFTISRDNAKNSVYLQMNSLRAEDTAVYYCARDFGFEGPRMDVWGQGTTVTVSS VL: DIQMTQSPSSLSASVGDRVTITCQASQDIKNYLNWYQQKPGKAPKLLIYDASNLETGVPSRFSGSGSGTDFTFTISSLQPEDIATYYCQQFDNLPITFGQGTRLEIK | < 1e-05 | – | < 0.498
